Measured values from the supplement of paper PMC9170038.

System: MS2 coat protein
Test: apparent KD of MS2 coat protein; higher = weaker reporter binding
Conditions: Eterna round: R107
Method: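 RNA-MaP round R107: designed RNA switches with theophylline, tryptophan, arginine or FMN aptamers are transcribed on-chip within common flanks. They are titrated with SNAP-549-labelled MS2 coat protein in RNA-MaP buffer (100 mM Tris pH 7.5, 80 mM KCl, 4 mM MgCl2), without ligand or with the indicated ligand. Median apparent KD per design.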

[1] = input ligand: theophylline 20 uM
[2] = input ligand: theophylline 2 mM
[3] = input ligand: tryptophan 2.4 mM

Sequence	apparent KD of MS2 coat protein (input ligand: arginine 13.2 mM)	apparent KD of MS2 coat protein (input ligand: none)	apparent KD of MS2 coat protein [1]	apparent KD of MS2 coat protein [2]	apparent KD of MS2 coat protein [3]
GACAUGAGGAUCACCCAUGUACCGCGAGAAGGAGCGCGGAUAAACGCAGGUAGGUCGCUCGUGGGCUCACAUUCAAUCGUAAGCU [Azaesisma]	50.9 nM	98.6 nM	116 nM	165 nM	77.7 nM
UGUGGGCGCACGGCCGCCACUGUCUUCAUCUGUUUGUCUACAUGAGGAUCACCCAUGUUGGUUUACAGGACCGGGUGCAUCUAUG [SSTryp B #12]	39.5 nM		80.8 nM	52.1 nM	
AGCCCUGUGCUAGAUACCAGCUACAUGAGGAUCACCCAUGUGCGUCAGAAAUGACUGUGUAGCCCUUGGCAGCUAAAUGCAUGUA [Exclusion - Theophylline B (Freestyle 7)]	13.8 nM		16.5 nM		11 nM
GGGAGAUAGGCGGCCGCCACUGAUUUUCAUAUAUAUAUAACAUGAGGAUCACCCAUGUAGAUAUACAGGACCGGGCCUAUUUUUU [aaaE]	19.1 nM		22.5 nM	19.7 nM	
AGUACUCGAACGGAUACCAGCCGGACAUGAGGAUCACCCAUGUCCUACCUAUGUUCGGUUGGCCCUUGGCAGCCGUUCGUGUACA [Omei Theo B SS A v6]	171 nM		707 nM		430 nM
ACAUGAGGAUCACCCAUGUCAUGAGGUUCACGAGGACCGGUACGGCCGCCACUCGACAUGAGGGUCACCCGUGAAGGGAACACCC [xdmullin]	18.1 nM	22.7 nM	29.8 nM	42.9 nM	17.9 nM
GCGUCGGUCGGAAGGAGCGACAUGAGGAUCACCCAUGUCUCCCGUUAUGGGAGUUCCUUAGGUCAGGUAGGUCGCCGACGGACGC [#1 Exclusion - Arginine B Attempt #19 (Inspired by Omei)]	63.8 nM	170 nM	190 nM	216 nM	196 nM
UGUAACAUGAGGAUCACCCAUGUGAGUGAUACCAGACUAGUGUUAGUCCCUUGGCAGCACGCUGGGCGAGUGUGUAGUCUAUGCG [Same State - Theophylline A (Freestyle 16)]	60.9 nM	108 nM	136 nM	117 nM	105 nM
AUCUCAUAGAGUGAUACCAGACUACAUGAGGAUCACCCAUGUUAGAUUUAAAUAUCAUUUGUCCCUUGGCAGCACAUUAAGUACA [JR_Nu_SSTheophyB_Sub021]	14.2 nM		14.8 nM		12.7 nM
GAGACGUCGGGAAGGAGCGCAUCAAAACCACACAUGAGGAUCACCCAUGUAUAAAUAUGCAUGCAGGUAGGUCGCCCGGUGUCCA [SS-ArgB16]	24.2 nM	27.1 nM	33.6 nM	33.1 nM	29.1 nM
GGACUAACCAGAAGGAGCGACGCAAGCAGAAACUGCAAUCCUCCGCACGAGGAUCACCCGUGUCAGGUAGGUCGCUGGUUAGUCG [ArgBX 28]	21.6 nM	28.2 nM	38.4 nM	30.1 nM	29.2 nM
UUACAUGAGGAUCACCCAUGUCAUACAGAAGGAGCGUCACAUAAGACAGGUAGGUCGCUGUUAUAUCAUACUAUUAUAUCCUCUA [JR_Nu_ExcArginiA_Sub028]	22 nM	40.4 nM	53.5 nM	38.2 nM	33 nM
GAUAUGAUAAGAAGGAGCGUCGAAAAUGGGUAAACAUGAGGAUCACCCAUGUAAAGGGAACGACAGGUAGGUCGCUUAUUAUAUC [AstromonsSSArgB#19]	146 nM	160 nM	190 nM	251 nM	134 nM
ACGAACUGUAGUGAUACCAGACGUACAUGAGGAUCACCCAUGUUGUAAACAUGGUGAAUAGUCCCUUGGCAGCACAGUUAGUUCG [#11 Exclusion-TheophyllineB]	162 nM		355 nM		299 nM
AGCUCGCAUCCUCAAGCGUCAAAGACGCGUCGAGGACCGGUACGGCCGCCACUCGACCUGAGGAACACCCAGGUCCUCGCGAGCA [TrypAX 7 #SwitchBubble #AlternativeMS2 #MS2Late #CuTurnoff]	20.7 nM	26.1 nM	40.2 nM	34.9 nM	236 nM
UAACAUGAGGCGGCCGCCACUCAACAUGAGGAUCACCCAUGUAUGUGUAAACAUGAGGAUCACCCGAGGACCGGGCCCUUGUAAU [Same State Tryptophan B 4]	25.2 nM	33.4 nM	46.7 nM	39.5 nM	54.2 nM
CCAUGGCUAGGAAGGAGCGCAUACUUCACAUGAGGAUCACCCAUGUCGAGACGUGAGUCAGUGCAGGUAGGUCGCCUAGCCAUGG [Same State - Arginine B (Freestyle 30)]	19.8 nM	16.7 nM	29.2 nM	24.8 nM	18.6 nM
CACAUGAGGAUCACCCAUGUCUGAACUGAAGGAGCGCUAAACAAGGCAGGUAGGUCGCGGAAUUUUGUGUGCAUAUGCACACGGG [9.R]	16.8 nM	17.2 nM	32.7 nM	21.1 nM	17.6 nM
ACGCCCGCCUCACAUGAGGAUCACCCAUGUCGAGGACCGGUACGGCCGCCACUCGUCGUCGGUAAUACGGGCGUUGAAUAAUAUA [Atedon]	11.8 nM		14.9 nM	14.4 nM	
UAUCCACAUGAGGAUCACCCAUGUUAGGAAGGAGCGGUGAAUGAACCAGGUAGGUCGCCUAGGUGAGGACCAUCUAUGGAUUCGU [Exclusion - Arginine A (Freestyle 12)]	12.8 nM	13.3 nM	19.8 nM	14.6 nM	13.1 nM

Sequence	apparent KD of MS2 coat protein (input ligand: arginine 13.2 mM)	apparent KD of MS2 coat protein (input ligand: none)	apparent KD of MS2 coat protein [1]	apparent KD of MS2 coat protein [2]	apparent KD of MS2 coat protein [3]
UACUUGCUGACGGCCGCCACUAGAACAUGAGGAUCACCCAUGUAUGGCGGCCGAAUCCUCAUGACUAGGACCGGGUCAGCAAGAU [(Trp1)-(Ms2)-(T)'-(M)'-(Trp2)_Design2]	8.18 nM	8.09 nM	12.5 nM	8.75 nM	8.22 nM
AAAAUAAAUAAAACACGUAACAUGAAGGAUACCAGCCAGAAAACUGGCCCUUGGCAGCCUCUACAUGAGGAUCACCCAUGUCGUG [Mat - Same State Theophlline A - Mod of Eli - D16]	156 nM		114 nM		293 nM
CUUGUCGUAACUGAUACCAGUGUACUGACAUGAGGAUCACCCAUGUUGGGUUUUGUUGUACACCCUUGGCAGCAGAAUCGAUAAG [AstrosExyTheB#9]	68.8 nM		95.3 nM		71.3 nM
UUCAAAGGGAACGGUGCUGGUGACAGAGAUACCAGAGUAGUAAUACUCCCUUGGCAGCUCAGAACAUGAGGAUCACCCAUGUAAU [Exclusion Theophylline A GF22]	18.5 nM	18 nM	29.1 nM	59.2 nM	17.6 nM
UAGCGAUAAUCUGAUACCAGACGUGUGCUCUCCUCAGACAUGAGGAUCACCCAUGUAUGCGUCCCUUGGCAGCAGAGUGAGGAGA [Theo B Ex t5]	19.6 nM	19.6 nM	26.8 nM	115 nM	18.6 nM
AAACAUGAGGAUCACCCAUGUAAAGUUGAAGGAGCGACCAGAGGGUCAGGUAGGUCGCAACACAUGAGGAUCACCCAUGUAUCGA [DOUBLE!!! :-D #5]	41.3 nM	96.5 nM	88.5 nM	91.6 nM	72.7 nM
AGGACGGUCGGAAGGAGCGGUACAUGAGGAUCACCCAUGUAUUCCUGGGCAUCCGUAGUGUGCCAGGUAGGUCGCCGAUUGCGGG [XArg-B7]	57.6 nM	32.7 nM	109 nM	103 nM	64.8 nM
GUAAUGAUAAGAAGGAGCGUCGAAAAUGGGUAAACAUGAGGAUCACCCAUGUAAAGGGAACGACAGGUAGGUCGCUUAUUAUUAC [AstromonsSSArgB#21]	126 nM	207 nM	356 nM	203 nM	210 nM
UAGCAUAGUACGGCCGCCACUCCUGGUUCCCGGCCGUGUGUAAGACAUGAGGAUCACCCAUGUAGGAGGACCGGGUAUCGCUUGC [theeternabot_sameState_MS2_Trp_B_22]	12.5 nM		20.2 nM	15.6 nM	
CAAGAACAGCCAGAUCUUGGCAGCUGAGAAGGAGCGCGGGAAGCCGCAGGUAGGUCGCUCAGGAAUACAUGAGGAUCACCCAUGU [Beoror]	19.8 nM	17.6 nM	24.6 nM	20 nM	17.2 nM
CCGUUAAAAUUCCAUUAUACAAUACCUGAAGGAGCGUAGGAAACUACAGGUAGGUCGCAGAUACAUGAGGAUCACCCAUGUACGG [SSAA #13]	14.6 nM	16.2 nM	20.3 nM	22.5 nM	17.3 nM
UGUAUGUGAUUUGAUACCAGACCAGCUGGUGGUACAUGAGCAUCAGCCAUGUAGGUUUGGGUCCCUUGGCAGCAAAUCGCAUACU [SS Theo B #24 Ms2]	20.7 nM	21 nM	28.7 nM	19.3 nM	21.4 nM
CACUACAUGAGGAUCACCCAUGUAUACUGACGAGGACCGGUACGGCCGCCACUCGAACCGAAACCGACUUCAUUCUGUGUACCAU [theeternabot_sameState_MS2_Trp_A_26]	15 nM		22.7 nM	19.3 nM	
UCUUGAGUUUCGGAUACCAGUGUUGUCGAUACAUGAGGAUCACCCAUGUUAGAGGAUGUACACCCUUGGCAGCCGGGUGUGGCGG [tftmullin]	12.2 nM	14.5 nM	14.7 nM	12.6 nM	15.5 nM
ACAAUAUUGAGUUUGUCUCAAGUUUCAGAAGGAGCGUGAGGAAUCACAGGUAGGUCGCUGAUAACAUGAGGAUCACCCAUGUAUU [JR_SSArginiA_Sub005]	26.1 nM	35.7 nM	43.1 nM	45.1 nM	35 nM
CCUCGGGACCGAAGGAGCGAGAUAACAACAUUGGGUCUCAACACAUGAGGAUCACCCAUGUCUCAGGUAGGUCGCGGUACCAUGG [Exclusion Arginine B GF22]	140 nM	385 nM	275 nM	387 nM	182 nM
ACGUGGAAAAUUUGUGGUGCUGCCUCAGGCCGAGGACCGGUACGGCCGCCACUCGUACAUGAGGAUCACCCAUGUCGAGUCACUG [Isanso]	19.2 nM		48 nM	47.4 nM	
GGAUAGGACAGAAGGAGCGACAUGGCGACGAAAGUCGAAACUUCACAUGAGGAUCACCCAUGUCAGGUAGGUCGCUGUCCUAUCG [ArgXB 7 #MS2Gate #StaticStem]	48.8 nM	48.9 nM	63.8 nM	55.7 nM	47.1 nM
UUCAGCUAGUCGGCCGCCACUACACGAGGAUCACCCGUGUUCCUAAAACACUGCUUCGGCAGUGGUAGGACCGGGACUAGCUGAG	27.7 nM	27.9 nM	33 nM	36.7 nM	123 nM
